From the DeepSol protein solubility set

Assay: soluble on expression in E. coli; label from the status in PepcDB or PDB records

MGSDKIHHHHHHMEELLERVFSFSDVDKLIDFISYELQKPVILESADFFLLAYNSYYINHFDSANQQTIFSKKCPVQIFERFLKDGIIEKLKTEPEPFRVNKIESIGLNQRVVVSAKHKGEVMGYIWIQELDQNLTDEELDFLYETSFHVGKIIYKTNKLKQEKEEKAEDLIKRAIYQQFTSEKELRREAERINTVLPSMFSVVILHAANGDGEAVEDLKENIRSYLNLRDKVSHVLTIESNIVIVVASFSQKSSVSSAASEFINKLLTHFHFQKIPTPIYIGIGNEYNHLLKLGKSYTEALEVIKAAEITGNQENIPYEYAKLGIYRYLESIEQKNEFLEYENKDLALLKAKDEESSTELLKTLEVYLLNNCKTKPAAEQLFIHQNTLNYRIKQITEMTSIDLSDFRTRCQLYLDLMLMKKK
soluble on expression in E. coli: not soluble

DEGYWDCSVCTFRNSAEAFKCMMCDVRKGTSTRKPRPVSQ
soluble on expression in E. coli: soluble

MQPVTKNGESMNKTALLLTVVGAVLLTGCARQENEYTVKEYTSMANPASVYCVEQGGQLEMVTENEQRVTYCVTKDGEKIEQWEYFRQNHDQQ
soluble on expression in E. coli: not soluble

MVHTPLNFKFSEKREEWNLRFCRNVGVSIVELVTADASSAYVRGLMAVNGSKVYSILPFISIDAEKAKKAKFPEDRMSGVRGKVIPSVLPEIKGETILDIGCGFGTLTMELAKNNPESQVYGIDLHDSLTGQAEMNAEVLGLPNVEFRTGSAYALPFEKDSIDAVTCFLMLHHLEDIKFALFEIKRVLKKGGSLTAVEPLAHQHHHGPQLSEAEWKELFEEAGFGTETENMEGAVVLRAVKRELEHHHHHH
soluble on expression in E. coli: not soluble

MGSDKIHHHHHHMAFNIDGSGNKSGVRSNMLSENNILKYGSNFSKANASSLNNKINSLNYTVEYINNELMGIFFRQGLKFGIFKAVEDFRPTISELITILGYPNEEFVEKYIKTAVSLNLLNLNEEERLELNSDFIYSSIHPEYDKIISDHVSRYDFMSGLVQYAFIGYDHPEILLNFKKDADIWDMMLNTKYMKTCREVISEYLDIKNGDTILEVGCGSRSPLYFASKVAPNGEYVGVDISKKLIRVAQGRLKRSGIECAKLKALDFSETIAKNKHDYVLCIHTLSYADSLKLFLKKMMGSLRKGGKLVIMEEFFTENINTNAELFEFYNHLNKYFKNYVSKTEILKELELIGIDYKYELLGDNCIVVERI
soluble on expression in E. coli: not soluble

MFKDFFNRTKKKKYLTVQDSKNNDVPAGIMTKCPKCKKIMYTKELAENLNVCFNCDHHIALTAYKRIEAISDEGSFTEFDKGMTSANPLDFPSYLEKIEKDQQKTGLKEAVVTGTAQLDGMKFGVAVMDSRFRMGSMGSVIGEKICRIIDYCTENRLPFILFSASGGARMQEGIISLMQMGKTSVSLKRHSDAGLLYISYLTHPTTGGVSASFASVGDINLSEPKALIGFAGRRVIEQTINEKLPDDFQTAEFLLEHGQLDKVVHRNDMRQTLSEILKIHQEVTK
soluble on expression in E. coli: soluble

KKLKKIVNSYINLGFEVTTKRETIQIDDLVPTQATVYEDELYGRAYELKRGLAEPIIVIKTNNNEKYILVDGHHRAVAACLSDIKELEAHVLEIDTDKKMGIEKTAEKQGLKSLSDIKILDEDKMNCSSAYKLKANILEM
soluble on expression in E. coli: not soluble

MSLEINKGEGAVLGKEFFCEEEPGYLIEEEEEKELLEFISSGNLEIDRRLEGGIPAGSLCLLEGANDSGKSIFLQQIIWGALNQDKTVLFLTTEKTSKEVLNQMESLKRGISDYFIIGRSKIFEINAGYVEENPRLSESLLQVLLECIQRCEEELVLIDSLTIFAVNASENAVLNFFTECVKLCDRGKTILISVHGYAFSQAVLYRLRSVCSACLELRIEQVGDQWVKTMEIQKLRGARKTTGNLLSFDVDSEFGLKIIPVSKIKAEGHHHHHH
soluble on expression in E. coli: soluble

MKECKKCKSNEYTNKQLVMMINECGHPLCKNCVDNIFALNSGNCHVCNRVLRKNNFREQIYEDPLIDKETFLRRKLRKIYNLKQDDFENLREFGDYQERFETVVYNLVFETNVNETNAEIQAFEEKHKEQIDRNKRRLDDDQKWIEDQLREERAMKARMTDHMEMDAKEQEAASAVTDTRKIMDELRDSNVAAEVILDRERKKQIEKELEEKEEQEKRKRRNKEMLQTRKRAAENMSFNTVIRVAGRAYVHQPLELVINGPPMPNVSEIEALGYLAHIRQPTAEYIAGGYTPMLGCSRALFEARIDLFSF
soluble on expression in E. coli: not soluble

HLDGRGAAMMEMAGLAQKGGAVQIHCRIAEKPSDISAIRVAVGEADGVIGGDLVVTAGAKTLGLMSQGRTGAVVNSHDIVTGEFTRNTDFRVPSDRLQVSLQARLQDRVAFLDATELARILMGDSIYSNMMVFGAAWQRGLIPLSAEAIQRAIELNGAAVAQNARAFALGRWAVL
soluble on expression in E. coli: not soluble

GGSGERKISRIHLVSEPSITHFLQVSWEKTLESGFVITLTDGHSAWTGTVSESEISQEADDMAMEKGKYVGELRKALLSGAGPADVYTFNFSKESCYFFFEKNLKDVSFRLGSFNLEKVENPAEVIRELICYCLDTTAKNEKSIDDLEEKVAHAKEENLNMHQMLDQTLLELNNM
soluble on expression in E. coli: soluble

MNNYIDLAKTYGGFTSLDTNYLNHLLASLTDQQKLAFITPPPSVINAYFAEIYQKQSPQAATDYYFNLSKALGLFTDQPSFEEEKPFVRLNLSGKAYGFAYQNDQEVALVFSEKAEPKKPELFFELTQIFPQYMVYEDKGQLKMQAKQFEQGECEDITPDDTLLSKIYRLANGITMLKGFNVEELWALSQTFSGQKYYDFAQREFMIYITQ
soluble on expression in E. coli: not soluble

MSSQPKLRILCLHGYRQCDQSFRQKTGSTRKLVKSLAEFEFVNGVHSVAVDEHVDSSRAWWFSNNEAMSFSSRESTEVAVGFEESVAAVVKFIEENGPFDGLLGFSQGASMVHLLIAKAQLGEIKLPGIRFAIFFSGFLSLSSKHDSLTLLRIKEFPSMHVFGDADEIVARPKSEKMADMFDVEPLRIAHDGGHVVPSMSKHKEKIAGFMREQLDRKIENN
soluble on expression in E. coli: not soluble

MSLVTKGKSAQYIKDESAFEDFLIGSGLEEASLSLSSGEVRTGQDLRAVIDDALAIRTLINGLHTRYSRTVVEQAAIAGALNPDLFNDLGRANAMAETIARRLDLVAEDTERGWQGRTSTSNEGPGGYIMERTVRGVKESATLDMALLGSADARALDRYAARLGEEGHHHHHH
soluble on expression in E. coli: not soluble

MTVTLTCRFKLELSKDQKQQFLDIATAYTNAVNYVLEQNLKDKSTNVKKLHRLYYKTIREDFDLPAQMAINVNRDVSAMYKTLWAQFKELKRRKPDSKAVKKFWDKPPKRKSLIVKYTYNRTASFKKINGEWHASLSTLQGRIKWIPMKGWSKHFEYLKSCKIGDPILTYDKSSKTFFLLVPVTLEVQEHQPKEIVGVDVGERHIAAVASTKGTRYLIDLPEEFKQRKQHYQRLRSELMSKGTRSAKRKLARISRREKRFTENVLHIIAKKLTTSHPGARFVLEDLTQIRANRITYRGKDKEARRQSEQWPFASLQQKIEYKAKLYYGVQSEKVDPSYTSQTCPRCGHVSKENRPDHGERFVCQSCGYEEHADIVGAINIALRVLAKDQQVNLEKLLGAVVSRPDAPRLGLEHHHHHH
soluble on expression in E. coli: soluble

MRNIEEDLHKNEEEDPAPEVDDTDIPVDPLLTLLYIRHTLTSPWSSSEERDTAKAAMMEEMEKHNMAPYIRLVCEALGVPLDESKLAEMDAINAKKVAAFDARLKDAVDNLGDTEVRDVLQAKCDHYARIGDLEMCMKTNEECAAKTLATGPKLDLYFQRIRLGIAFSDNDIAAKGITDAHRLMKDGDWERRNRLRVYEGIYHVFIRDFQRGSTLLLDSITTFAAGELLTFQDFVFITVVASLPVLSRPELRKRIVYSPEVNRTGVDDVRELVNSIYDCQYNKVFPNLEVVCQHLRKVVYLSPHVSYFFREMRVLIFTQFLDSYSSVTLESMGAAFGIPVPALDSMLCTLISNERIACKVDRVDGSVETYRGDTTNFDYHRIVKSGDLLLNRIQKLSRLVDM
soluble on expression in E. coli: soluble

MGSDKIHHHHHHMMTYRDAWFELALLTNGRSFPRHTHDEFVISANLSGMETVWLDGETFVATNDMVTTYNPNQLQGSDNAFDRWQCASLYVHPQAFEHYFHQTFLFSQGWNPSAQLASELKQLVTSDLDDSARQERIILLLAGLMEGQHRMLPQSQVKEAERITRIKEGLLNDLSEVPTLDQLAQQESLSVAHLVRSFNQAVGLPPLAWLMQRRMCKARELLRQGTAISQVAGDVGFADQAHFTKAFNRYNAMTPGQFRRINF
soluble on expression in E. coli: not soluble
